Among the data in patent US20250243261A1 are Kd, fold improvement in Kd vs wildtype and fold improvement in Kd over wildtype values, retold here.

pKd: −log10 of the molar value. Like-named read-outs stand apart in the source and are kept apart here. Some results are limits rather than exact numbers.

Test [1] has as its target HA H7 HK16, A/Hong Kong/61/2016(H7N9) (Influenza A virus).
In test [2] the target is HA H4 Hubei, A/swine/Hubei/06/2009(H4N1) (Influenza A virus).
Test [3] has the same target. The source holds these as a separate data set.
In test [4] the target is HA H7 HK17, A/Hong Kong/125/2017(H7N9) (Influenza A virus).
Test [5] deals with HA H2 Japan, A/Japan/305/1957(H2N2) (Influenza A virus).
In test [6] the target is HA H5 Vietnam, A/Vietnam/1203/2004(H5N1) (Influenza A virus).
The target of test [7] is HA H7 HK17, A/Hong Kong/125/2017(H7N9) (Influenza A virus). The source holds these as a separate data set.
In test [8] the target is HA H7 HK16, A/Hong Kong/61/2016(H7N9) (Influenza A virus). The source holds these as a separate data set.
For test [9], the target named is HA H7 HK17, A/Hong Kong/125/2017(H7N9) (Influenza A virus). The source holds these as a separate data set.

As for MEDI8852 VH I24V Fab, the pKd in test [1] was 8.07; in test [2], 9.06.

Consider “MEDI8852 UCA VH K58S-V65P IgG (antibody)”, for which the pKd in [3] was 7.10.

As for MEDI8852 VH T53I Fab, the figures for the negative logarithm of the Kd (pKd) in test [1] and in [2] were 7.99 and 9.13, respectively.

MEDI8852 VL T33L Fab: the pKd in test [1] is 7.39; in test [2], 8.49.

Turning to MEDI8852 VH E65R Fab, the negative-log Kd (pKd) in test [1] is 8.81; in test [2], 9.49; in test [4], 10.44; in [5], over 12.00; in test [6] it was over 12.00.

As to MEDI8852 VH E65P Fab, the pKd in test [1] is 8.63; in test [2], 9.51; in test [4], 10.00; in [5], over 12.00; in [6] it was over 12.00.

Turning to MEDI8852 VL T25A Fab, the pKd in [1] is 7.77; in [2], 8.84.

Take MEDI8852 VH M117Y Fab: the pKd in test [1] was 8.39; in test [2] it was 9.45.

As for MEDI8852 VH S44G Fab, the pKd in [1] was 8.15; in test [2] it was 9.22.

MEDI8852 VH N74S Fab: the negative-log Kd (pKd) is 8.22 in [1] and 9.27 in [2].

Substance MEDI8852 VH E65R-M117Y Fab registered a fold improvement in Kd vs wildtype in [7] of 10 fold. For the same substance, in [8], the fold improvement in Kd over wildtype stood at 3.6 fold. Further, the pKd was 8.77 in test [1]; 9.61 in [2]; 10.70 in test [4]; over 12.00 in test [5]; over 12.00 in test [6].

For the substance MEDI8852 VH P75R Fab, the results for the pKd in test [1] and in [2] were 8.15 and 9.11, respectively.

For the substance MEDI8852 VH E65P-M117Y Fab, the results for the pKd in test [1], in test [2] and in [4] were 8.57, 9.44 and 10.37, respectively.

In the case of MEDI8852 VH D27F Fab, the pKd in test [1] was 8.05; in test [2] it was 9.05.

With “MEDI8852 UCA VH K58S-V65P/VL G95P IgG (antibody)”, the pKd in test [3] was 7.52; in test [9], 8.25.

Consider MEDI8852 VL G95P Fab, for which the figures for the negative-log Kd (pKd) in test [1] and in test [2] were 8.27 and 9.10, respectively.

Take MEDI8852 VL L29V Fab: the pKd in test [1] is 7.10; in test [2], 8.38.

For the substance MEDI8852 VL G55A Fab, the figures for the negative-log Kd (pKd) in test [1] and in [2] were 8.29 and 9.29, respectively.

In [1], MEDI8852 VL R92D Fab gave a pKd of 7.58.
